Source: paper PMC12902261

Target: NbMTA (Nicotiana benthamiana) (UniProt A0A1J6JV69)
Assay: BLI
Details: Octet RED 96, Super Streptavidin sensors, 100 nM biotinylated ssRNA loaded, NbMTA (50 nM stated; serial dilutions), equilibration in 0.01 M saline, PBS …

“UGCAGUUCGUUCAUCACCAAGCUACGACGUCACUUGCAAAGGAUCUCAAGUUGAAGGGGACUUGGAAGAAGUCAUUAGUGGCCAAAGACUUGAUCAUAGCAGGCGCUGUUGCAAUUGGUGGAAUAGGACUCAUAUAUAGUUGGUUCACACAAUCAGUUGAGACUGUGUCUCACCAA [PVY 6K2 peak 2-1 probe]” was tested, and the Kd was > 30 µM.

In the case of “GGGAAAAAUAAAUCCAAAAGAAUUCAAGCCUUGAAGUUUCGCCAUGCUCGUGACAAAAGGGCUGGUUUUGAAAUUGACAACAAUGAUGACACAAUAGAGGAAUUCUUUGGAUCUGCAUACAGGAAAAAGGGAAAAGGUAAAGGUACCACUGUUGGUAUGGGCAAGUCAAGCAGAAGGUUUGUUAA [PVY NIa peak 2-1 probe]”, the Kd is reported as > 30 µM.

“UCUGGGACACAUACUGUGCCGAGAAUCAAGGCUAUCACGUCCAAAAUGAGAAUGCCCAAAAGCAAGGGAGCAACCGUGCUAAACUUAGAACACUUGCUUGAGUAUGCUCCACAACAAAUUGAUAUUUCAAAUACUCGGGCAACUCAAUCACA [PVY CP peak 3 probe]” was tested, and the Kd was 3.1 µM.
